Measured values: publication PMC4104756

Biological target: poly-(α,β)-DL-aspartic acid sodium salt
Experiment: turbidity at 600 nm + light microscopy
Details: scale: polyHis:polyAsp

Substance: poly-L-histidine (peptide)
- volume ratio polyHis:polyAsp at maximum turbidity: 0.82
